pKd: −log10 of the molar value.

This test deals with wild-type Pfs48/45 D3 (6C domain), glycosylated (Plasmodium falciparum) (UniProt Q8I6T1).
Sequence of UniProt Q8I6T1 (Q8I6T1 291-428, tags left off): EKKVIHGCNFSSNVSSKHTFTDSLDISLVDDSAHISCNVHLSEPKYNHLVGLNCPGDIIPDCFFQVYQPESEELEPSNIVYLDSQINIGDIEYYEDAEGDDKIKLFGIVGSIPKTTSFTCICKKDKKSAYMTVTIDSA

“TB31F neutralizing monoclonal antibody (humanized version of mAb 85RF45.1) (from UniProt P0DOY2 1-106)”: the pKd – broadly, −log10 of the Kd, conventionally taken in molar units – is 8.60; the dissociation rate constant (koff) (in general, the first-order rate constant of dissociation) was determined as 0.00082 s⁻¹; the kon (commonly the rate constant with which the complex forms) amounted to 350000 M⁻¹ s⁻¹.
